Data on six molecules can be found in patent US9958461B2, “Detection of protein to protein interactions” (THE GOVERNING COUNCIL OF THE UNIVERSITY OF TORONTO, priority 2013, dated 2018).

The target of assay [1] is T1, EGFR-L858R (Homo sapiens, UniProt P00533, L858R).
T1 construct: with the advantage of testing full-length integral membrane proteins; (GGGGS)2 linker-Cub (human ubiquitin aa 35-76)-GAL4(1-147)-mNFkB(364-550) (C); expressed in transfected cells
The assay is described as follows: MaMTH EGFR-interactor screen, lentiviral preys against EGFR-L858R bait (interaction score). The conditions noted are these: MaMTH interaction score of prey with EGFR-L858R bait. It counts as cell-based. An outline of the steps:
(§1)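 5×GAL4UAS-luciferase HEK293T reporter cells were lentivirally infected with preys (MOI ~0.3-0.4) and puromycin-selected ≥48 h. They were then transfected in triplicate with the EGFR bait, and luciferase was read 24 h later. Score is fold-change over averaged negative-control preys; >1 denotes interaction.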

The target in assay [2] is T2, EGFR-Wt (Homo sapiens, UniProt P00533).
T2 construct: with the advantage of testing full-length integral membrane proteins; (GGGGS)2 linker-Cub (human ubiquitin aa 35-76)-GAL4(1-147)-mNFkB(364-550) (C); expressed in transfected cells
The assay is described as follows: MaMTH EGFR-interactor screen, lentiviral preys against EGFR-wildtype bait (interaction score). It counts as cell-based. The conditions noted are these: MaMTH interaction score of prey with EGFR-Wt bait, mean. An outline of the steps: as §1

Assay [3] has as its system EGFR-Wt. The assay is described as above. Format: cell-based, human. The settings on record: ratio of EGFR-Wt mean to EGFR-L858R mean interaction score. The procedure, abridged: as §1

B1: SH2D3C (protein, UniProt Q8N5H7 1-860, looked up)
SH2 domain-containing protein …: MTEGTKKTSKKFKFFKFKGFGSLSNLPRSFTLRRSSASISRQSHLEPDTFEATQDDMVTVPKSPPAYARSSDMYSHMGTMPRPSIKKAQNSQAARQAQEAGPKPNLVPGGVPDPPGLEAAKEVMVKATGPLEDTPAMEPNPSAVEVDPIRKPEVPTGDVEEERPPRDVHSERAAGEPEAGSDYVKFSKEKYILDSSPEKLHKELEEELKLSSTDLRSHAWYHGRIPREVSETLVQRNGDFLIRDSLTSLGDYVLTCRWRNQALHFKINKVVVKAGESYTHIQYLFEQESFDHVPALVRYHVGSRKAVSEQSGAIIYCPVNRTFPLRYLEASYGLGQGSSKPASPVSPSGPKGSHMKRRSVTMTDGLTADKVTRSDGCPTSTSLPRPRDSIRSCALSMDQIPDLHSPMSPISESPSSPAYSTVTRVHAAPAAPSATALPASPVARRSSEPQLCPGSAPKTHGESDKGPHTSPSHTLGKASPSPSLSSYSDPDSGHYCQLQPPVRGSREWAATETSSQQARSYGERLKELSENGAPEGDWGKTFTVPIVEVTSSFNPATFQSLLIPRDNRPLEVGLLRKVKELLAEVDARTLARHVTKVDCLVARILGVTKEMQTLMGVRWGMELLTLPHGRQLRLDLLERFHTMSIMLAVDILGCTGSAEERAALLHKTIQLAAELRGTMGNMFSFAAVMGALDMAQISRLEQTWVTLRQRHTEGAILYEKKLKPFLKSLNEGKEGPPLSNTTFPHVLPLITLLECDSAPPEGPEPWGSTEHGVEVVLAHLEAARTVAHHGGLYHTNAEVKLQGFQARPELLEVFSTEFQMRLLWGSQGASSSQARRYEKFDKVLTALSHKLEPAVRSSEL
B1 showed an EGFR-L858R mean in assay [1] of 2.92. The same molecule yielded an EGFR-Wt mean in assay [2] of 2.33. For the same molecule, the Wt/L858R in assay [3] is listed as 0.80.

B2: CTNND1 (protein, UniProt O60716 1-968, looked up)
Catenin delta-1: MDDSEVESTASILASVKEQEAQFEKLTRALEEERRHVSAQLERVRVSPQDANPLMANGTLTRRHQNGRFVGDADLERQKFSDLKLNGPQDHSHLLYSTIPRMQEPGQIVETYTEEDPEGAMSVVSVETSDDGTTRRTETTVKKVVKTVTTRTVQPVAMGPDGLPVDASSVSNNYIQTLGRDFRKNGNGGPGPYVGQAGTATLPRNFHYPPDGYSRHYEDGYPGGSDNYGSLSRVTRIEERYRPSMEGYRAPSRQDVYGPQPQVRVGGSSVDLHRFHPEPYGLEDDQRSMGYDDLDYGMMSDYGTARRTGTPSDPRRRLRSYEDMIGEEVPSDQYYWAPLAQHERGSLASLDSLRKGGPPPPNWRQPELPEVIAMLGFRLDAVKSNAAAYLQHLCYRNDKVKTDVRKLKGIPVLVGLLDHPKKEVHLGACGALKNISFGRDQDNKIAIKNCDGVPALVRLLRKARDMDLTEVITGTLWNLSSHDSIKMEIVDHALHALTDEVIIPHSGWEREPNEDCKPRHIEWESVLTNTAGCLRNVSSERSEARRKLRECDGLVDALIFIVQAEIGQKDSDSKLVENCVCLLRNLSYQVHREIPQAERYQEAAPNVANNTGPHAASCFGAKKGKDEWFSRGKKPIEDPANDTVDFPKRTSPARGYELLFQPEVVRIYISLLKESKTPAILEASAGAIQNLCAGRWTYGRYIRSALRQEKALSAIADLLTNEHERVVKAASGALRNLAVDARNKELIGKHAIPNLVKNLPGGQQNSSWNFSEDTVISILNTINEVIAENLEAAKKLRETQGIEKLVLINKSGNRSEKEVRAAALVLQTIWGYKELRKPLEKEGWKKSDFQVNLNNASRSQSSHSYDDSTLPLIDRNQKSDKKPDREEIQMSNMGSNTKSLDNNYSTPNERGDHNRTLDRSGDLGDMEPLKGTTPLMQDEGQESLEEELDVLVLDDEGGQVSYPSMQKI
As to B2, in assay [1], the EGFR-L858R mean amounted to 3.63. Moreover, the EGFR-Wt mean in assay [2] is 3.00. In addition, the Wt/L858R in assay [3] is 0.83.

B3: CAV1 (protein, UniProt Q03135 2-178, looked up)
Caveolin-1: SGGKYVDSEGHLYTVPIREQGNIYKPNNKAMADELSEKQVYDAHTKEIDLVNRDPKHLNDDVVKIDFEDVIAEPEGTHSFDGIWKASFTTFTVTKYWFYRLLSALFGIPMALIWGIYFAILSFLHIWAVVPCIKSFLIEIQCISRVYSIYVHTVCDPLFEAVGKIFSNVRINLQKEI
B3 displayed an EGFR-L858R mean in assay [1] of 2.14. Besides, the EGFR-Wt mean in assay [2] worked out at 1.86. In addition, the Wt/L858R in assay [3] is 0.87.

B4: ANKS1A (protein, UniProt Q92625 2-1134, looked up)
Ankyrin repeat and SAM …: GKEQELLEAARTGHLPAVEKLLSGKRLSSGFGGGGGGGSGGGGGGSGGGGGGLGSSSHPLSSLLSMWRGPNVNCVDSTGYTPLHHAALNGHKDVVEVLLRNDALTNVADSKGCYPLHLAAWKGDAQIVRLLIHQGPSHTRVNEQNNDNETALHCAAQYGHTEVVKVLLEELTDPTMRNNKFETPLDLAALYGRLEVVKMLLNAHPNLLSCNTKKHTPLHLAARNGHKAVVQVLLDAGMDSNYQTEMGSALHEAALFGKTDVVQILLAAGTDVNIKDNHGLTALDTVRELPSQKSQQIAALIEDHMTGKRSTKEVDKTPPPQPPLISSMDSISQKSQGDVEKAVTELIIDFDANAEEEGPYEALYNAISCHSLDSMASGRSSDQDSTNKEAEAAGVKPAGVRPRERPPPPAKPPPDEEEEDHIDKKYFPLTASEVLSMRPRIHGSAAREEDEHPYELLLTAETKKVVLVDGKTKDHRRSSSSRSQDSAEGQDGQVPEQFSGLLHGSSPVCEVGQDPFQLLCTAGQSHPDGSPQQGACHKASMQLEETGVHAPGASQPSALDQSKRVGYLTGLPTTNSRSHPETLTHTASPHPGGAEEGDRSGARSRAPPTSKPKAELKLSRSLSKSDSDLLTCSPTEDATMGSRSESLSNCSIGKKRLEKSPSFASEWDEIEKIMSSIGEGIDFSQERQKISGLRTLEQSVGEWLESIGLQQYESKLLLNGFDDVHFLGSNVMEEQDLRDIGISDPQHRRKLLQAARSLPKVKALGYDGNSPPSVPSWLDSLGLQDYVHSFLSSGYSSIDTVKNLWELELVNVLKVQLLGHRKRIIASLADRPYEEPPQKPPRFSQLRCQDLLSQTSSPLSQNDSCTGRSADLLLPPGDTGRRRHDSLHDPAAPSRAERFRIQEEHREAKLTLRPPSLAAPYAPVQSWQHQPEKLIFESCGYEANYLGSMLIKDLRGTESTQDACAKMRKSTEHMKKIPTIILSITYKGVKFIDASNKNVIAEHEIRNISCAAQDPEDLCTFAYITKDLQTSHHYCHVFSTVDVNLTYEIILTLGQAFEVAYQLALQAQKSRATGASAAEMIETKSSKPVPKPRVGVRKSALEPPDMDQDAQSHASVSWVVDPKPDSKRSLSTN
Take B4: in assay [1], the EGFR-L858R mean amounted to 11.76. The molecule further registered an EGFR-Wt mean in assay [2] of 9.27. Also, the Wt/L858R in assay [3] worked out at 0.79.

B5: SOS2 (protein, UniProt Q07890 1-1332, looked up)
Son of sevenless homolog 2: MQQAPQPYEFFSEENSPKWRGLLVSALRKVQEQVHPTLSANEESLYYIEELIFQLLNKLCMAQPRTVQDVEERVQKTFPHPIDKWAIADAQSAIEKRKRRNPLLLPVDKIHPSLKEVLGYKVDYHVSLYIVAVLEYISADILKLAGNYVFNIRHYEISQQDIKVSMCADKVLMDMFDQDDIGLVSLCEDEPSSSGELNYYDLVRTEIAEERQYLRELNMIIKVFREAFLSDRKLFKPSDIEKIFSNISDIHELTVKLLGLIEDTVEMTDESSPHPLAGSCFEDLAEEQAFDPYETLSQDILSPEFHEHFNKLMARPAVALHFQSIADGFKEAVRYVLPRLMLVPVYHCWHYFELLKQLKACSEEQEDRECLNQAITALMNLQGSMDRIYKQYSPRRRPGDPVCPFYSHQLRSKHLAIKKMNEIQKNIDGWEGKDIGQCCNEFIMEGPLTRIGAKHERHIFLFDGLMISCKPNHGQTRLPGYSSAEYRLKEKFVMRKIQICDKEDTCEHKHAFELVSKDENSIIFAAKSAEEKNNWMAALISLHYRSTLDRMLDSVLLKEENEQPLRLPSPEVYRFVVKDSEENIVFEDNLQSRSGIPIIKGGTVVKLIERLTYHMYADPNFVRTFLTTYRSFCKPQELLSLLIERFEIPEPEPTDADKLAIEKGEQPISADLKRFRKEYVQPVQLRILNVFRHWVEHHFYDFERDLELLERLESFISSVRGKAMKKWVESIAKIIRRKKQAQANGVSHNITFESPPPPIEWHISKPGQFETFDLMTLHPIEIARQLTLLESDLYRKVQPSELVGSVWTKEDKEINSPNLLKMIRHTTNLTLWFEKCIVEAENFEERVAVLSRIIEILQVFQDLNNFNGVLEIVSAVNSVSVYRLDHTFEALQERKRKILDEAVELSQDHFKKYLVKLKSINPPCVPFFGIYLTNILKTEEGNNDFLKKKGKDLINFSKRRKVAEITGEIQQYQNQPYCLRIEPDMRRFFENLNPMGSASEKEFTDYLFNKSLEIEPRNCKQPPRFPRKSTFSLKSPGIRPNTGRHGSTSGTLRGHPTPLEREPCKISFSRIAETELESTVSAPTSPNTPSTPPVSASSDLSVFLDVDLNSSCGSNSIFAPVLLPHSKSFFSSCGSLHKLSEEPLIPPPLPPRKKFDHDASNSKGNMKSDDDPPAIPPRQPPPPKVKPRVPVPTGAFDGPLHSPPPPPPRDPLPDTPPPVPLRPPEHFINCPFNLQPPPLGHLHRDSDWLRDISTCPNSPSTPPSTPSPRVPRRCYVLSSSQNNLAHPPAPPVPPRQNSSPHLPKLPPKTYKRELSHPPLYRLPLLENAETPQ
In assay [1], B5 returned an EGFR-L858R mean of 1.83. In assay [2], this molecule showed an EGFR-Wt mean of 0.28. Besides, the Wt/L858R in assay [3] stood at 0.15.

B6: CDH5 (protein, UniProt P33151 48-784, looked up)
Cadherin-5: DWIWNQMHIDEEKNTSLPHHVGKIKSSVSRKNAKYLLKGEYVGKVFRVDAETGDVFAIERLDRENISEYHLTAVIVDKDTGENLETPSSFTIKVHDVNDNWPVFTHRLFNASVPESSAVGTSVISVTAVDADDPTVGDHASVMYQILKGKEYFAIDNSGRIITITKSLDREKQARYEIVVEARDAQGLRGDSGTATVLVTLQDINDNFPFFTQTKYTFVVPEDTRVGTSVGSLFVEDPDEPQNRMTKYSILRGDYQDAFTIETNPAHNEGIIKPMKPLDYEYIQQYSFIVEATDPTIDLRYMSPPAGNRAQVIINITDVDEPPIFQQPFYHFQLKENQKKPLIGTVLAMDPDAARHSIGYSIRRTSDKGQFFRVTKKGDIYNEKELDREVYPWYNLTVEAKELDSTGTPTGKESIVQVHIEVLDENDNAPEFAKPYQPKVCENAVHGQLVLQISAIDKDITPRNVKFKFILNTENNFTLTDNHDNTANITVKYGQFDREHTKVHFLPVVISDNGMPSRTGTSTLTVAVCKCNEQGEFTFCEDMAAQVGVSIQAVVAILLCILTITVITLLIFLRRRLRKQARAHGKSVPEIHEQLVTYDEEGGGEMDTTSYDVSVLNSVRRGGAKPPRPALDARPSLYAQVQKPPRHAPGAHGGPGEMAAMIEVKKDEADHDGDGPPYDTLHIYGYEGSESIAESLSSLGTDSSDSDVDYDFLNDWGPRFKMLAELYGSDPREELLY
In turn, B6 showed an EGFR-L858R mean in assay [1] of 2.63. The molecule further gave an EGFR-Wt mean in assay [2] of 2.22. Also, in assay [3], the Wt/L858R is recorded as 0.84.
